Measured values reported in patent US20250313634A1 (WUXI BIOLOGICS SHANGHAI, published 2025).

Columns and labels:
[1] = target: T1, full-length human PD-L1 expressed on CHO cells (human, UniProt Q9NZQ7 19-290); experiment: FACS on CHO cells transfected with full-length human PD-L1
T1 construct: whole, on cells; also called CHO-K1 cells expressing human PD-L1; PD-L1 transfected CHO cells

[2] = target: T2, hPD-L1_ECD.His point mutant E45A (human, UniProt Q9NZQ7 19-238); experiment: capture ELISA on coated 1.14.4; relative to silent alanine substitutions
T2 construct: extracellular domain
Procedure, shortened: (§1)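 Capture ELISA in which supernatant containing quantified PD-L1 alanine mutant was detected with HRP anti-His antibody. Absorbance was normalized to the average of control mutants. Epitope residues were called at binding fold change <0.55.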

[3] = target: T3, hPD-L1_ECD.His point mutant E237A (human, UniProt Q9NZQ7 19-238); experiment: as above
T3 construct: extracellular domain
Procedure, shortened: as §1

[4] = target: T4, hPD-L1_ECD.His point mutant Q83A (human, UniProt Q9NZQ7 19-238); experiment: as above
T4 construct: extracellular domain
Procedure, shortened: as §1

[5] = target: T5, hPD-L1_ECD.His point mutant T180A (human, UniProt Q9NZQ7 19-238); experiment: as above
T5 construct: extracellular domain
Procedure, shortened: as §1

[6] = target: T6, hPD-L1_ECD.His point mutant L142A (human, UniProt Q9NZQ7 19-238); experiment: as above
T6 construct: extracellular domain
Procedure, shortened: as §1

[7] = target: T7, hPD-L1_ECD.His point mutant K124A (human, UniProt Q9NZQ7 19-238); experiment: as above
T7 construct: extracellular domain
Procedure, shortened: as §1

[8] = target: T8, hPD-L1_ECD.His point mutant H69A (human, UniProt Q9NZQ7 19-238); experiment: as above
T8 construct: extracellular domain
Procedure, shortened: as §1

[9] = target: T9, hPD-L1_ECD.His point mutant D61A (human, UniProt Q9NZQ7 19-238); experiment: as above
T9 construct: extracellular domain
Procedure, shortened: as §1

[10] = target: T10, hPD-L1_ECD.His point mutant Y118A (human, UniProt Q9NZQ7 19-238); experiment: as above
T10 construct: extracellular domain
Procedure, shortened: as §1

[11] = target: T11, hPD-L1_ECD.His point mutant I64A (human, UniProt Q9NZQ7 19-238); experiment: as above
T11 construct: extracellular domain
Procedure, shortened: as §1

[12] = target: T12, hPD-L1_ECD.His point mutant A232G (human, UniProt Q9NZQ7 19-238); experiment: as above
T12 construct: extracellular domain
Procedure, shortened: as §1

[13] = target: T13, hPD-L1_ECD.His point mutant E217A (human, UniProt Q9NZQ7 19-238); experiment: as above
T13 construct: extracellular domain
Procedure, shortened: as §1

[14] = target: T14, hPD-L1_ECD.His point mutant P43A (human, UniProt Q9NZQ7 19-238); experiment: as above
T14 construct: extracellular domain
Procedure, shortened: as §1

[15] = target: T15, hPD-L1_ECD.His point mutant V44A (human, UniProt Q9NZQ7 19-238); experiment: as above
T15 construct: extracellular domain
Procedure, shortened: as §1

[16] = target: T16, hPD-L1_ECD.His point mutant I199A (human, UniProt Q9NZQ7 19-238); experiment: as above
T16 construct: extracellular domain
Procedure, shortened: as §1

[17] = target: T17, hPD-L1_ECD.His point mutant T154A (human, UniProt Q9NZQ7 19-238); experiment: as above
T17 construct: extracellular domain
Procedure, shortened: as §1

[18] = target: T18, hPD-L1_ECD.His point mutant I54A (human, UniProt Q9NZQ7 19-238); experiment: as above
T18 construct: extracellular domain
Procedure, shortened: as §1

[19] = target: T19, hPD-L1_ECD.His point mutant Y32A (human, UniProt Q9NZQ7 19-238); experiment: as above
T19 construct: extracellular domain
Procedure, shortened: as §1

[20] = target: T20, mouse PD-L1_ECD.His protein (mouse, UniProt Q9EP73 19-239); experiment: ELISA, 2 ug/ml 1.14.4 coated on the plate, mPD-L1-His protein titrated, HRP-anti-His detection
T20 construct: extracellular domain; Bought (Sino Biological, China); also called mPD-L1-His protein

[21] = target: T1, full-length human PD-L1 expressed on …; experiment: FACS competition: blocking of mouse Fc-tagged human PD-1 binding to CHO cells expressing human PD-L1
Method: 3.1 Competition assay by FACS: to examine whether the fully human antibodies can block the binding of PD-L1 to PD-1, the CHO-K1 cells expressing human PD-L1 were incubated with various concentrations of the fully human antibodies at 4° C. for 1 hour. The unbound antibodies were washed away, and then the mouse Fc-tagged human PD-1 was added to the cells. The binding of human PD-1 to PD-L1 expressing cell was detected by using FITC-conjugated goat anti-mouse IgG, followed by the analysis using a BD Biosciences FACSCanto II and FlowJo Version software.
Then the mouse Fc-tagged human PD-1 was added to the cells. The binding of human PD-1 to PD-L1 expressing cell was detected by using FITC-conjugated goat anti-mouse IgG, followed by the FACS analysis.

T1 sequence (Q9NZQ7 19-290): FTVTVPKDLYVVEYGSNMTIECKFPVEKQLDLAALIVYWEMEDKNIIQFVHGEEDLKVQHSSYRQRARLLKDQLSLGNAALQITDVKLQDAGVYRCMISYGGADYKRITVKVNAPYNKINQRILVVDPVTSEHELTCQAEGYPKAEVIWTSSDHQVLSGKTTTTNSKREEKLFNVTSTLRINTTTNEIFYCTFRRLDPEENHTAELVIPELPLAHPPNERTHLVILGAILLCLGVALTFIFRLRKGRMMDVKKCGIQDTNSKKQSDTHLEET
T7 sequence (Q9NZQ7 19-238 K124A): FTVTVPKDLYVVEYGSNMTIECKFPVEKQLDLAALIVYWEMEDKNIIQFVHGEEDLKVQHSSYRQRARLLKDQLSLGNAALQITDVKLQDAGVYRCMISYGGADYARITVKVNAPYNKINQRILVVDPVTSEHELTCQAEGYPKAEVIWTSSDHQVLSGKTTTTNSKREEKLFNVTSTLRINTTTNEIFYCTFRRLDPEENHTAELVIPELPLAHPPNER
T11 sequence (Q9NZQ7 19-238 I64A): as the sequence (Q9NZQ7 19-238 K124A) above, with I46A, A106K counted along it
T4 sequence (Q9NZQ7 19-238 Q83A): as the sequence (Q9NZQ7 19-238 K124A) above, with Q65A, A106K counted along it
T17 sequence (Q9NZQ7 19-238 T154A): as the sequence (Q9NZQ7 19-238 K124A) above, with A106K, T136A counted along it
T15 sequence (Q9NZQ7 19-238 V44A): as the sequence (Q9NZQ7 19-238 K124A) above, with V26A, A106K counted along it
T10 sequence (Q9NZQ7 19-238 Y118A): as the sequence (Q9NZQ7 19-238 K124A) above, with Y100A, A106K counted along it
T19 sequence (Q9NZQ7 19-238 Y32A): as the sequence (Q9NZQ7 19-238 K124A) above, with Y14A, A106K counted along it
T18 sequence (Q9NZQ7 19-238 I54A): as the sequence (Q9NZQ7 19-238 K124A) above, with I36A, A106K counted along it
T8 sequence (Q9NZQ7 19-238 H69A): as the sequence (Q9NZQ7 19-238 K124A) above, with H51A, A106K counted along it
T2 sequence (Q9NZQ7 19-238 E45A): as the sequence (Q9NZQ7 19-238 K124A) above, with E27A, A106K counted along it
T13 sequence (Q9NZQ7 19-238 E217A): as the sequence (Q9NZQ7 19-238 K124A) above, with A106K, E199A counted along it
T20 sequence (Q9EP73 19-239): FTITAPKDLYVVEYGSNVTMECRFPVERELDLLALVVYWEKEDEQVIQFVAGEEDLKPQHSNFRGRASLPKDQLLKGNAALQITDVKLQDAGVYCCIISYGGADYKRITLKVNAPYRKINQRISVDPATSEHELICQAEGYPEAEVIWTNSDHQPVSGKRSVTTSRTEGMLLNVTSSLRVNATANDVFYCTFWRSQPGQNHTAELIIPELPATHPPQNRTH
T16 sequence (Q9NZQ7 19-238 I199A): as the sequence (Q9NZQ7 19-238 K124A) above, with A106K, I181A counted along it
T12 sequence (Q9NZQ7 19-238 A232G): as the sequence (Q9NZQ7 19-238 K124A) above, with A106K, A214G counted along it
T9 sequence (Q9NZQ7 19-238 D61A): as the sequence (Q9NZQ7 19-238 K124A) above, with D43A, A106K counted along it
T6 sequence (Q9NZQ7 19-238 L142A): as the sequence (Q9NZQ7 19-238 K124A) above, with A106K, L124A counted along it
T3 sequence (Q9NZQ7 19-238 E237A): as the sequence (Q9NZQ7 19-238 K124A) above, with A106K, E219A counted along it
T14 sequence (Q9NZQ7 19-238 P43A): as the sequence (Q9NZQ7 19-238 K124A) above, with P25A, A106K counted along it
T5 sequence (Q9NZQ7 19-238 T180A): as the sequence (Q9NZQ7 19-238 K124A) above, with A106K, T162A counted along it

B1: 1.14.4 (antibody, V domains shown)
VH: EVQLLESGGGLVQPGGSLRLSCAASGFTFSSYAMSWVRQAPGKGLEWVSGISGSGGFTYYADSVKGRFTISRDNSKNTLYLQMNSLRAEDTAVYYCAKPPRGYNYGPFDYWGQGTLVTVSS
VL: SYVLTQPPSVSVAPGQTARITCGGNNIGSKSVHWYQQKPGQAPVLVVYDDSDRPSGIPERFSGSNSGNTATLTISRVEAGDEADYYCQVWDSSSDHVVFGGGTKLTVL
notes: Fully human monoclonal antibody with a human constant region of IgG4 isotype
- EC50 (read off the curve) [1]: ~1 nM
- fold change [2]: 0.942 fold
- fold change [3]: 0.956 fold
- fold change [4]: 0.982 fold
- fold change [5]: 1 fold
- fold change [6]: 1.05 fold
- fold change [7]: 1.06 fold
- fold change [8]: 1.06 fold
- fold change [9]: 0.372 fold
- fold change [10]: 0.701 fold
- fold change [11]: 0.716 fold
- fold change [12]: 0.756 fold
- fold change [13]: 0.823 fold
- fold change [14]: 0.834 fold
- fold change [15]: 0.837 fold
- fold change [16]: 0.848 fold
- fold change [17]: 0.888 fold
- fold change [18]: 0.918 fold
- fold change [19]: 0.935 fold
- binding result [20]: no binding
- IC50 (read off the curve) [21]: ~2 nM
